Consider 41 sequences from the nanobody polyreactivity screen of Harvey et al. (2022).

This series is described as follows: yeast display, Sf9 membrane polyspecificity reagent, FACS + sequencing; frameworks hold sequencing errors. A digest of the protocol:
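Nanobodies from a synthetic yeast display library (Saccharomyces cerevisiae BJ5465), induced 36–48 hours with galactose, were stained 1 hour at 4 °C with 10% biotinylated, detergent-solubilized Sf9 membrane reagent, enriched on streptavidin microbeads, then FACS-sorted. Anti-HA (expression) and streptavidin (reagent binding) fluorescence set low and high (top ~1%) gates. Polyreactivity labels come from the gate of origin. Genes were colony-PCR amplified, MiSeq 2 × 250 sequenced and filtered by CDR length.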
For the sequence “QVQLVESGGGIVQAGGSLRLISAASGRTYKSYTIGWYRQAPGKEREFVAAISSRGGNTYYADSVKGRFTISRDNAKNTVYLQMNSLKPEDTAVYYCAARYGYSYDRRDYWGQGTQVTVSS”, the “polyreactivity (PSR sort gate)” value is “high polyreactivity”. The same measure for “QVQLVESGGGIVQAGGSLRLRCAASGFTFSRNAMVWYRQAPGKERELVAAITWSGGRTYYADSVKGRFTISRDNAKNTVYLQMNSLKPEDTAVYYCAARKYHLRSAYDYWGQGTKVTVSS”: “low polyreactivity”; for “QVQLVESGGGIVQAGGSLRLSCAASGFIFGSYAMGWYRQAPGKERELVAAINSVDRTYYADSVKGRFTISRDNAKNTVYLQMNSLKPEDTAVYYCAATIAPTPGYIIYDYWGQGTQVTVSS”: “high polyreactivity”; for “QVQLVESGGGIVQAGGSLRLSCAASGFIFVANAMGRYRQAPGKERQLVAAISGSGGSTFYADSVKGRFTISRDNAKNTVNLQMNSLKPEDTAGYYCNADAYDYSGYFEYDCWGQGTQETVSS”: “high polyreactivity”. As to “QVQLVESGGGIVQAGGSLRLSCAASGFIFYRYAMGWYRQAPGKERELVAAITGSGARTYYADSVKGRFTISRDNAKNTVYLQMNSLKPEDTAVYYCNARGYRGYDYWGQGTQVTVSS”, the “polyreactivity (PSR sort gate)” value was “high polyreactivity”. The same measure for “QVQLVESGGGIVQAGGSLRLSCAASGFIFYWNAMGRYRQAPGKERELVAGITSGGDTNYADSVKGRFTISRDNAKITVYLQMNSLKPEDTAVYYCAAEGFRGYGYWGQGTQVTVSS”: “low polyreactivity”. The entry for “QVQLVESGGGIVQAGGSLRLSCAASGFIISYNAMVWYRQAPGKERELVAAISSRGGSTYYADSVKGRFTISRDNAKNTVYLQMNSLKPEDTAVYYCAVASRRVYTAPYDYWGQGTQVSVSS” is “high polyreactivity”; for “QVQLVESGGGIVQAGGSLRLSCAASGFISYRNAMGWDRMAPGKERELVASITSSGGRTYYADSVKGRFTISRDNAKNTVYLQMNSLKPEDTAVYDWAADNWYKKQKRPSAYDYWGQGTQVSVSS” it is “high polyreactivity”; for “QVQLVESGGGIVQAGGSLRLSCAASGFNFLRYAMGWYRQAPGKERELVAAISTSGGSTSYADSVKGRFTISRDNAKNTVYLQMNSLNPEDTAVYYCNAVLYKVSISEYDYWGQGTQVTVSS” it is “high polyreactivity”. The entry for “QVQLVESGGGIVQAGGSLRLSCAASGFTFEKNAMGWYRQAPGKERELVAAISRGGSTYADSVKGRFRISRDNAKNTVYLQMNSLKPEDTAVYYCAADTVYIFSSAINGEFGYWGQGTQVTVSS” is “low polyreactivity”; for “QVQLVESGGGIVQAGGSLRLSCAASGFTFEYYAMGWYRQAPGKERELVADITSGGTYYADSVKGRFTISRDNAKNTVYLQMNSLKPEDTAVYYCAADFGQPYTYYAKENYWGQGTQVTVSS” it is “low polyreactivity”; for “QVQLVESGGGIVQAGGSLRLSCAASGFTFTHYAMGWYRQAPGKERELVAAISPSGGSTYYADSVKGRFTISRDNAKNTVYLQMNSLKTEDTAVFYFAARRDGWVQWGYYYWGQGTEVTVSS” it is “low polyreactivity”. Consider “QVQLVESGGGIVQAGGSLRLSCAASGFTISRYAMGWDRPAPGKERELVAAITGSGGSTYYADSVKGRFTISRDIAKNTVYLQMNSLKPEDTAVYYCNTMKHYKREYDYWGQGSQVTVSS”, for which the “polyreactivity (PSR sort gate)” value is “high polyreactivity”. The same measure for “QVQLVESGGGIVQAGGSLRLSCAASGGTFPWYTMVWYRQAPGKERELVATIRGRDGSTFYADSVKGRFTISRDNAKNTVYLQMNSLIPEVTAVYYCAAVGRRKDLRWGVYYRFDYWGQGTQVTVSS”: “low polyreactivity”; for “QVQLVESGGGIVQAGGSLRLSCAASGIIFPLYAMGWYRPAPGKERELVAAIRSTGGSTYYADSVKGRFTISRDNANNTVYLQMNSLKPEDTAVYYCNARQNRRQGNVGYWGQGTQVTVSS”: “low polyreactivity”; for “QVQLVESGGGIVQAGGSLRLSCAASGIIFPYYAMGWYRQAPGKVRELVAAISSSGGSTHYADSVKGRFTISRDTAKNTVYLQMHSLKPEDTAVYYCAARDINRYPKAQPTDRSIYYWRQGTQVTVSS”: “high polyreactivity”. The entry for “QVQLVESGGGIVQAGGSLRLSCAASGIIIFYKAMGWDRQAPGKERELVATISRRGGSTYYADSVKGRFTISRDNAKNTVYLQMNSLKPEDTAVYYCARDVGAGSKISRLSSYNYWGQGTQVTVSS” is “low polyreactivity”. Regarding “QVQLVESGGGIVQAGGSLRLSCAASGITFDGYAMGWYRQAPGKERELVAGISWSGARTYYADSVKGRFTISRDNAKNTVYLLMNSLKPEDTALYYCNKVSLRNHGGYDYWGQGNQVTVSS”, the “polyreactivity (PSR sort gate)” value was “high polyreactivity”. The same measure for “QVQLVESGGGIVQAGGSLRLSCAASGITFFYYAMGWYRQAPGKERELVASISSGGSTYYADSVKGRFTISRDNAKNTVYLQMNSLKPEDTAVYYCAAPTGWYPAYGEYEYWGQGTQVTVSS”: “low polyreactivity”; for “QVQLVESGGGIVQAGGSLRLSCAASGITFPANAMGWYRQAPGKERELVADISESDGSTYYADSVKGRFTISRDNAKNTVYLQMNSLKPEDTAVYYCAADGTSGTRSDYWGQGTQVTVSS”: “low polyreactivity”; for “QVQLVESGGGIVQAGGSLRLSCAASGITFPFYTMGWYRQAPGKERELVADISSRGTSTYYADSVKGRFTISRDNAKYTVYLQMNSLNPEDTAVYYCKARATPQRAYDSWGQGTLVTVSS”: “high polyreactivity”. The entry for “QVQLVESGGGIVQAGGSLRLSCAASGLTFPQYAMGWYTQAPGKERELVAAISWNGGITYYADSVKGRFTISRDYAKNTVYLQMNSLKPEDTAVYYCNDDGGYGDYYYWGQGTQVTVSS” is “low polyreactivity”.

Turning to “QVQLVESGGGIVQAGGSLRLSCAASGLTFRKYAMGWYRQAPGKERELVAAIRFRGGSTYYADSVKGRFTISRDNAKNTVYLQMNSLKPEDTAVYYCNTAPVGLLYGRYDYWGEGTQVTVSS”, the “polyreactivity (PSR sort gate)” value is “high polyreactivity”. With “QVQLVESGGGIVQAGGSLRLSCAASGRIFAWNAMGWYRQAPGKERELVAYADSVKGRFTISRDNAKNTVYLQMHSLNPEDSAVYYCAKVVTPYVPGDSYWYDYWGQGTQVTVSS”, the “polyreactivity (PSR sort gate)” value is on record as “low polyreactivity”. The entry for “QVQLVESGGGIVQAGGSLRLSCAASGRIFDEYAMGWYRLAPGKERELVAAITYSAGSTYYADSVKGRFTISRDNAKNTVYLQMNSLKPEDTAVYYCAADRYYWWWYTYNYWGQGTQVTVSS” is “low polyreactivity”. The entry for “QVQLVESGGGIVQAGGSLRLSCAASGRIFLTNAMGWYRQAPGKERELVAAITSGGSTYYADSVKGRFTISRDNAKNTVYLQMNSLKPEDTAVFYCNADTDRYWPYEYDYWGQGTQVTVSS” is “low polyreactivity”; for “QVQLVESGGGIVQAGGSLRLSCAASGRIFLTNAMGWYRQAPGKERELVADISRGGSTYPDSVKGRFTISRDNAKNTVYLQMNSLKPEDTAVYYCAADEYSPGDSRTRYDYWGQGTQVTVSS” it is “low polyreactivity”; for “QVQLVESGGGIVQAGGSLRLSCAASGRIFRRYAMVWSRQAPGKQRELVAAISSGGGSTYYADSVKGRFTISRDNAKNTVYLQMNSLKPEDTAVFYCDAASSPRYDYWGQGTQVTVSS” it is “high polyreactivity”. Turning to “QVQLVESGGGIVQAGGSLRLSCAASGRIFVDYDMGWYRQATGKERELVATISSGGSTNYADSVKGRFTISRDNAKNTVYLQMNSLKPEDSAVYHCNKDYHVRYYYWGQGTQVTVSS”, the “polyreactivity (PSR sort gate)” value is “low polyreactivity”. The same measure for “QVQLVESGGGIVQAGGSLRLSCAASGRIFYDHAMGWYRQAPGKERELVAAITSVRSTNYADSVKGRFTISRDNAKNTVNLQMNSLKPEDTAVYYCARASAWYGTLVGKYTKYDYWGQATQVTVSS”: “low polyreactivity”; for “QVQLVESGGGIVQAGGSLRLSCAASGRILSSYAMGWYRQAPGKERELVARISYSGGRTYYADSVKGRFTISRDNAKNTVYLQMNSQKPEDTAVYYCAAVSRVHFSYIYDYWGQGTQVTVSS”: “high polyreactivity”.

Turning to “QVQLVESGGGIVQAGGSLRLSCAASGRSFDPYAMGWYRQAPGKERELVAAISRSGGSTYYADSVKGRFTISRDNAKNTVYLQMNSLKPEDTAFYYCAADDSRYYYEYDYWGQGTQVTVSS”, the “polyreactivity (PSR sort gate)” value is “high polyreactivity”. For “QVQLVESGGGIVQAGGSLRLSCAASGRTFAYNVMGWYRHAPGKERELVAGISFGAGSTYYADSVKGRFTISRDNAKNTVYLQMNSLKPEDTAVYYCATRRRGTRYPRGYDYWGQGTQVTVSS”, the “polyreactivity (PSR sort gate)” value was “high polyreactivity”. Turning to “QVQLVESGGGIVQAGGSLRLSCAASGRTFAYYTMGWYRQAPGKERELVARISNRGTNTYYADSVKGRFTISRDNAKNTVYLQMNSLKPEDTAVYYCAKYYYTSIVGYDSWGQGTQVTVSS”, the “polyreactivity (PSR sort gate)” value is “low polyreactivity”. The same measure for “QVQLVESGGGIVQAGGSLRLSCAASGRTFIRYTRGWYRQAPGKERELVGSIRYSGASTSYADSVKGRFTISRDNAKNTVYLQMNSLKPEDTAVYYCAARFGRYSHRYYYWGQGTQVTVSS”: “high polyreactivity”. The entry for “QVQLVESGGGIVQAGGSLRLSCAASGRTFLGYAMGWYRQAPGKERELVAAISYSGSSTYYADSVKGRFTISRDNAKNTVYLQMNSLKPEDTAVYYCAAQFYFLFDYWGQGTQVTVSS” is “low polyreactivity”; for “QVQLVESGGGIVQAGGSLRLSCAASGRTFLQNAMGWYRQAPGKERELVATINYSGSSTYYADSVKGRFTISRDNAKKTVYLQMNSLKPEDTAVYYCNRDVPYRLVYYANYYRGQGTQVTVSS” it is “low polyreactivity”. Take “QVQLVESGGGIVQAGGSLRLSCAASGRTFRGNAMGWSRQAPVKERELVATIRRPGGSTYYADSVKGRFTISRDNAKNTVYLQMNSLKPEDTAVYYCNALNYYLYDKTFDYWGQGTKVTVSS”: the “polyreactivity (PSR sort gate)” value is listed as “high polyreactivity”.

Regarding “QVQLVESGGGIVQAGGSLRLSCAASGRTFRGNAMGWYRQAPGKERELVAAISWSGGRTYYADSVKGRFTISRDNAKNTVYLQMNSLKPEDTAVYYCNRLTRRWYSLRSFDYWGQGTQVTVSS”, the “polyreactivity (PSR sort gate)” value was “high polyreactivity”.

For the sequence “QVQLVESGGGIVQAGGSLRLSCAASGRTFSPYAKGWYRQAPGKERELVAAITLSGSSTYYADSVKGRFTISRDNAKNTVYLQMNRLKPEDTAVYYCAADYLYSWYRYVTYDYWGQGTQVTVSS”, the “polyreactivity (PSR sort gate)” value is “high polyreactivity”. The entry for “QVQLVESGGGIVQAGGSLRLSCAASGRTFYGNVMGWYRQAPGKERELVATISFSAGSTYYADSVKGRFTISRDNAKNTVYLQMNSLKPEDTAVYYCNADHTDYASGGGNYWGQGTQVTVSS” is “low polyreactivity”.
